Data from patent publication US6864224 (BROWN UNIVERSITY RESEARCH FOUNDATION, dated 2005).

Target: endogenous Raf-1 of Rat-1 cells (rat (Rat-1 cells), UniProt P11345 1-648)
Assay: co-immunoprecipitation of endogenous proteins with RKIP antiserum
From the text: For co-precipitation experiments of endogenous proteins, 2 ×10^7 Rat-1 cells were lysed by sonication in PBS, and the immunoprecipitates were washed 4 times with PBS.

B1: endogenous RKIP of Rat-1 cells (other, rat (Rat-1 cells), UniProt P31044 2-187, looked up)
chain: AADISQWAGPLSLQEVDEPPQHALRVDYGGVTVDELGKVLTPTQVMNRPSSISWDGLDPGKLYTLVLTDPDAPSRKDPKFREWHHFLVVNMKGNDISSGTVLSEYVGSGPPKDTGLHRYVWLVYEQEQPLNCDEPILSNKSGDNRGKFKVESFRKKYHLGAPVAGTCFQAEWDDSVPKLHDQLAGK
notes: Endogenous protein in cell lysates
**Q.** Does B1 bind?
**A.** binds
